In the test the target is recombinant human LIF, histidine-tagged (hLIF-His) (human, UniProt P15018 23-202). The test is described as follows: FACS.
Sequence of recombinant human LIF, histidine-tagged (hLIF-His) (P15018 23-202): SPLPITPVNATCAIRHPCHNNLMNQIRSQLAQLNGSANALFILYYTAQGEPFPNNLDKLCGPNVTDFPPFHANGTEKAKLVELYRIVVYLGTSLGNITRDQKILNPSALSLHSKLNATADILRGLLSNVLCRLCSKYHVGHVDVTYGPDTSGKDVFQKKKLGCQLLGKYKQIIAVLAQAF

B1: yeast-displayed eLIFR CBM I–Ig-like–CBM II domains (designed binder)
chain: QKKGAPHDLKCVTNNLQVWNCSWKAPSGTGRGTDYEVCIENRSRSCYQLEKTSIKIPALSHGDYEITINSLHDFGSSTSKFTLNEQNVSLIPDTPEILNLSADFSTSTLYLKWNDRGSVFPHRSNVIWEIKVLRKESMELVKLVTHNTTLNGKDTLHHWSWASDMPLECAIHFVEIRCYIDNLHFSGLEEWSDWSPVKNISWIPDSQTKVFPQDKVVPVGSDITFCCVSQEKVLSALIGRTNCPLIHLDGENVAIKVRNVSASASSGTNVVFITEDDIFGTVIFAGYPPDTPQQLNCETHDLKEIICSWNPGRVTALVGPRATSYTLVESFSGKYVRLKRAEAPTNESYQLLFQMLPNQEIYNFTLNAHNPLGRSQSTILVNITEKVYPHTPTSFKVKDINSTAVKLSWHLPGNFAKINFLCEIEIKKSNSVQEQRNVTIKGVENSSYLVALDKLNPYTLYTFRIRCSTETFWKWSKWSNKKQHLTTEAS
In general, Kd refers to the concentration at which binding is half-saturated. For B1, the Kd is 0.014 nM.
